Assay results published in patent publication US20240199762A1 (PHILOGEN S P A, published 2024).

T1: ovine FAP (oFAP) extracellular domain (ECD) (sheep)
T1 construct: also called oFAP-ECD
T1 chain: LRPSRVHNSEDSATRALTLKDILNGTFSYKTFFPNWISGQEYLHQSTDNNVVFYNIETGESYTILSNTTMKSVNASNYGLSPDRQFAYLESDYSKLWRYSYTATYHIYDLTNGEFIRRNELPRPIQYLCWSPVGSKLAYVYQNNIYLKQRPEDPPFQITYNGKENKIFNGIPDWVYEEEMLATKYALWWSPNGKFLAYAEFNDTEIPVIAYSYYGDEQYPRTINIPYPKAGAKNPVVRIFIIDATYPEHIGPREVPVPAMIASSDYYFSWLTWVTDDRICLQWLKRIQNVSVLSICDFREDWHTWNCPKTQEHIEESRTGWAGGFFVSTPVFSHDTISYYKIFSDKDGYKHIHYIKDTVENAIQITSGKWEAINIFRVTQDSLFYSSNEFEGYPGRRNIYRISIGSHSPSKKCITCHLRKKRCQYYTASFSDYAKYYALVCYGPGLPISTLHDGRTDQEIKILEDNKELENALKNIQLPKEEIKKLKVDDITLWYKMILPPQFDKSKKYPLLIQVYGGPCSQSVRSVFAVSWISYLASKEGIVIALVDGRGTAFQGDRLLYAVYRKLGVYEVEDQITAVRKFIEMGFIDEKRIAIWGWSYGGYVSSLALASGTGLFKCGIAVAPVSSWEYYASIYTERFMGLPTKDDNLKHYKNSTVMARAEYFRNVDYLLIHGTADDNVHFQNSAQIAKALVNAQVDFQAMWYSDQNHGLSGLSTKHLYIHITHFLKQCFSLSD

T2: canine FAP (caFAP) extracellular domain (ECD) (domestic dog (Canis familiaris))
T2 construct: also called caFAP-ECD
T2 chain: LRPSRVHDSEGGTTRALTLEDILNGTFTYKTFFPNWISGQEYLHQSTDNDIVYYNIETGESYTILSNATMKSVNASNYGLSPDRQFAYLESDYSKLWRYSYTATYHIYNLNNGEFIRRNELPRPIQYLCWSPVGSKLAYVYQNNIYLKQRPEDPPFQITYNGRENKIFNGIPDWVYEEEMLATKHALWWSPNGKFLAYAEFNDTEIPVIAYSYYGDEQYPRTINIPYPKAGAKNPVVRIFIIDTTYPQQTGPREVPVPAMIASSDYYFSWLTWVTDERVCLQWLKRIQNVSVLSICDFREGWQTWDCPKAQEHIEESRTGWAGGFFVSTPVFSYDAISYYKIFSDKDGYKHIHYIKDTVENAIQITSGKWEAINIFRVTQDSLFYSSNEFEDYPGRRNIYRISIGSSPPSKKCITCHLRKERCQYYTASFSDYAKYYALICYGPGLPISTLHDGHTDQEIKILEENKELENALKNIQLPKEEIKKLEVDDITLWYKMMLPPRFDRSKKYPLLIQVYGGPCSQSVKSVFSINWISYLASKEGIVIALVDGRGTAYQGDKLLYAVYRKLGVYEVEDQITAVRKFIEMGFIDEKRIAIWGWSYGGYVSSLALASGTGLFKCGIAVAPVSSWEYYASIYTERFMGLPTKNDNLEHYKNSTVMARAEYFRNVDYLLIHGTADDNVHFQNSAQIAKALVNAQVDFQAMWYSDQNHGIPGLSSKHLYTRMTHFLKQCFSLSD

T3: porcine FAP (pFAP) extracellular domain (ECD) (pig, UniProt A5D7B7 39-760 (bovine entry))
T3 construct: also called pFAP-ECD
T3 chain: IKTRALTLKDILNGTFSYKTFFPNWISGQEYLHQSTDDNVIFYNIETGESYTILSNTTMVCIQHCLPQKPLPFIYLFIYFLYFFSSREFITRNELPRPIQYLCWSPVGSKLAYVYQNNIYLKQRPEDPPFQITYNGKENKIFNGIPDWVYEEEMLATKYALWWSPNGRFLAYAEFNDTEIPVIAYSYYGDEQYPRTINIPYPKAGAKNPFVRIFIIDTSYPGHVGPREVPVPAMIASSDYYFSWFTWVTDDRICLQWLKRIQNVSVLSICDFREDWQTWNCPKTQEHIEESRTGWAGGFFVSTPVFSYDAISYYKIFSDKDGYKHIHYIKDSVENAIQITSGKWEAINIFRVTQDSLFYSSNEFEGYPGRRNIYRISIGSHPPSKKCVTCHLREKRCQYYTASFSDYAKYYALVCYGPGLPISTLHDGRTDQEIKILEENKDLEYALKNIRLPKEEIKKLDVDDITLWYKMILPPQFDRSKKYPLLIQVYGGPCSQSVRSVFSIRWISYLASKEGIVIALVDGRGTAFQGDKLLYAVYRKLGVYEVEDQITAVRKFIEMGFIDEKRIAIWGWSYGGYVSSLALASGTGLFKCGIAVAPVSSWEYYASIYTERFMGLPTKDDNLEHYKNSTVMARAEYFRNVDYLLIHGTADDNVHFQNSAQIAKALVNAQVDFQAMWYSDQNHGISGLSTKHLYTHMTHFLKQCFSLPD


What was measured:
[1] = biological target: T1, ovine FAP (oFAP) extracellular domain …; assay: ELISA, 120 nM oFAP-ECD coated on Maxisorp plates
Protocol: (§1) Cross-reactivity of the anti-hFAP antibodies with oFAP-ECD and pFAP-ECD was tested using ELISA. 120 nM of oFAP-ECD or pFAP-ECD was coated on Maxisorp plates overnight at 4° C. […] Specifically, the C5 antibody was employed in IgG2a format, while all other antibodies, including the 7NP2 antibody, were in IgG1 format. The differences between the IgG2a and IgG1 formats are not expected to affect binding to FAP. After 3 washes with PBS, binding of the antibodies to oFAP-ECD and pFAP-ECD was detected using an anti-human or anti-murine antibody HRP conjugate.

[2] = biological target: T2, canine FAP (caFAP) extracellular domain …; assay: ELISA, 120 nM caFAP-ECD coated on Maxisorp plates
Protocol: as §1, with “caFAP-ECD” for “oFAP-ECD and pFAP-ECD”, “caFAP-ECD” for “oFAP-ECD or pFAP-ECD”

[3] = biological target: T3, porcine FAP (pFAP) extracellular domain …; assay: ELISA, 120 nM pFAP-ECD coated on Maxisorp plates
Protocol: as §1

[4] = biological target: T1, ovine FAP (oFAP) extracellular domain …; assay: ELISA, 120 nM oFAP-ECD coated, antibody at 5 ug/mL
Protocol: as §1

Row | binding result [1] | binding result [2] | binding result [3] | binding result [4] | Binder
1 | no binding (tested: 5 µg/mL) | no binding (tested: 5 µg/mL) | no binding (tested: 5 µg/mL) |  | anti-hen egg lysozyme antibody KSF in IgG1 format (antibody, V domains shown, Negative control; It was conjugated to FITC in the immunofluorescence and ex vivo experiments; also called KSF IgG1; KSF(IgG1)) VH: not shown VL: SSELTQDPAVSVALGQTVRITCQGDSLRSYYASWYQQKPGQAPVLVIYGKNNRPSGIPDRFSGSSSGNTASLTITGAQAEDEADYYCQSSPLNRLAVVFGGGTKLTVLG
2 |  |  |  | binds | anti-FAP antibody 7NP2 in IgG1 format (antibody, V domains shown, also called 7NP2 IgG1; 7NP2(IgG1)) VH: EVQLLESGGGLVQPGGSLRLSCAASGFTFSSYAMSWVRQAPGKGLEWVSAIGSVGGPTYYADSVKGRFTISRDNSKNTLYLQMNSLRAEDTAVYYCAKRLAWFDYWGQGTLVTVSS VL: EIVLTQSPGTLSLSPGERATLSCRASQSVSSSYLAWYQQKPGQAPRLLIYGASSRATGIPDRFSGSGSGTDFTLTISRLEPEDFAVYYCQQSGKGPLTFGQGTKVEIKR
